Numbered stars: 1 amine (or outer) side, 2 acyl side, 3 side chain; on linkers, the order of the positions; unused ones are H or OH. Bridge positions count the residues as written; N and C are the ends. Side chains are listed from the residue outwards. Ends that are not written are not given here. * marks the point of attachment. C20 diacid = O=C(O)CCCCCCCCCCCCCCCCCCC(=O)*; γGlu = O=C(O)[C@H](CCC(=O)[*:2])N[*:1]; AEEA = NCCOCCOCC(=O)O
T1: human calcitonin receptor (human, UniProt P30988 25-474)
T1 sequence (looked up): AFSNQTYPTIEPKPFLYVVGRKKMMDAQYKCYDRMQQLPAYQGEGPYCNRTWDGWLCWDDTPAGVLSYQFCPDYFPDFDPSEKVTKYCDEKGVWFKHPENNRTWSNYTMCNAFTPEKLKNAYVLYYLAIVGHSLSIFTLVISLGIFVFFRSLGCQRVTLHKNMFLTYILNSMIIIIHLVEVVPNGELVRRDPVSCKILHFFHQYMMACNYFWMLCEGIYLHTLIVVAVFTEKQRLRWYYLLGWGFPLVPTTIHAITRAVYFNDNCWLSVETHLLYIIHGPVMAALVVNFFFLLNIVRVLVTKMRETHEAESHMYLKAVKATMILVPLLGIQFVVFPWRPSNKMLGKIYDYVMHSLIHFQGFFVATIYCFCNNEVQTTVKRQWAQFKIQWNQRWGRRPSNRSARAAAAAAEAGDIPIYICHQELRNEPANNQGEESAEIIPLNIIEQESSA


target: T1, human calcitonin receptor; assay: cell-based or functional assay

Row | Binder | hCTR funct. EC50 [nM]
1 | K([AEEA-AEEA-γGlu-C20 diacid])CNTATCATQRLANFLRHSSPNFGAIPSSTPVGSNTY-NH2 (disulfide 2-7; N-terminus assumed; SMILES CC[C@H](C)[C@H](NC(=O)[C@H](C)NC(=O)CNC(=O)[C@H](Cc1ccccc1)NC(=O)[C@H](CC(N)=O)NC(=O)[C@@H]1CCCN1C(=O)[C@H](CO)NC(=O)[C@H](CO)NC(=O)[C@H](Cc1c[nH]cn1)NC(=O)[C@H](CCCNC(=N)N)NC(=O)[C@H](CC(C)C)NC(=O)[C@H](Cc1ccccc1)NC(=O)[C@H](CC(N)=O)NC(=O)[C@H](C)NC(=O)[C@H](CC(C)C)NC(=O)[C@H](CCCNC(=N)N)NC(=O)[C@H](CCC(N)=O)NC(=O)[C@@H](NC(=O)[C@H](C)NC(=O)[C@@H]1CSSC[C@H](NC(=O)[C@@H](N)CCCCNC(=O)COCCOCCNC(=O)COCCOCCNC(=O)CC[C@H](NC(=O)CCCCCCCCCCCCCCCCCCC(=O)O)C(=O)O)C(=O)N[C@@H](CC(N)=O)C(=O)N[C@@H]([C@@H](C)O)C(=O)N[C@@H](C)C(=O)N[C@@H]([C@@H](C)O)C(=O)N1)[C@@H](C)O)C(=O)N1CCC[C@H]1C(=O)N[C@@H](CO)C(=O)N[C@@H](CO)C(=O)N[C@H](C(=O)N1CCC[C@H]1C(=O)N[C@H](C(=O)NCC(=O)N[C@@H](CO)C(=O)N[C@@H](CC(N)=O)C(=O)N[C@H](C(=O)N[C@@H](Cc1ccc(O)cc1)C(N)=O)[C@@H](C)O)C(C)C)[C@@H](C)O, also called compound 96) | 3.8
2 | K([AEEA-γGlu-C20 diacid])CNTATCATQRLAAFLRHSSPNFGAIPSSTPVGSNTY-NH2 (disulfide 2-7; N-terminus assumed; SMILES CC[C@H](C)[C@H](NC(=O)[C@H](C)NC(=O)CNC(=O)[C@H](Cc1ccccc1)NC(=O)[C@H](CC(N)=O)NC(=O)[C@@H]1CCCN1C(=O)[C@H](CO)NC(=O)[C@H](CO)NC(=O)[C@H](Cc1c[nH]cn1)NC(=O)[C@H](CCCNC(=N)N)NC(=O)[C@H](CC(C)C)NC(=O)[C@H](Cc1ccccc1)NC(=O)[C@H](C)NC(=O)[C@H](C)NC(=O)[C@H](CC(C)C)NC(=O)[C@H](CCCNC(=N)N)NC(=O)[C@H](CCC(N)=O)NC(=O)[C@@H](NC(=O)[C@H](C)NC(=O)[C@@H]1CSSC[C@H](NC(=O)[C@@H](N)CCCCNC(=O)COCCOCCNC(=O)CC[C@H](NC(=O)CCCCCCCCCCCCCCCCCCC(=O)O)C(=O)O)C(=O)N[C@@H](CC(N)=O)C(=O)N[C@@H]([C@@H](C)O)C(=O)N[C@@H](C)C(=O)N[C@@H]([C@@H](C)O)C(=O)N1)[C@@H](C)O)C(=O)N1CCC[C@H]1C(=O)N[C@@H](CO)C(=O)N[C@@H](CO)C(=O)N[C@H](C(=O)N1CCC[C@H]1C(=O)N[C@H](C(=O)NCC(=O)N[C@@H](CO)C(=O)N[C@@H](CC(N)=O)C(=O)N[C@H](C(=O)N[C@@H](Cc1ccc(O)cc1)C(N)=O)[C@@H](C)O)C(C)C)[C@@H](C)O, also called compound 72) | 4.76
3 | K([AEEA-γGlu-C20 diacid])CNTATCATQRLARFLRHSSPNFGAIPSSTNVGSNTY-NH2 (disulfide 2-7; N-terminus assumed; SMILES CC[C@H](C)[C@H](NC(=O)[C@H](C)NC(=O)CNC(=O)[C@H](Cc1ccccc1)NC(=O)[C@H](CC(N)=O)NC(=O)[C@@H]1CCCN1C(=O)[C@H](CO)NC(=O)[C@H](CO)NC(=O)[C@H](Cc1c[nH]cn1)NC(=O)[C@H](CCCNC(=N)N)NC(=O)[C@H](CC(C)C)NC(=O)[C@H](Cc1ccccc1)NC(=O)[C@H](CCCNC(=N)N)NC(=O)[C@H](C)NC(=O)[C@H](CC(C)C)NC(=O)[C@H](CCCNC(=N)N)NC(=O)[C@H](CCC(N)=O)NC(=O)[C@@H](NC(=O)[C@H](C)NC(=O)[C@@H]1CSSC[C@H](NC(=O)[C@@H](N)CCCCNC(=O)COCCOCCNC(=O)CC[C@H](NC(=O)CCCCCCCCCCCCCCCCCCC(=O)O)C(=O)O)C(=O)N[C@@H](CC(N)=O)C(=O)N[C@@H]([C@@H](C)O)C(=O)N[C@@H](C)C(=O)N[C@@H]([C@@H](C)O)C(=O)N1)[C@@H](C)O)C(=O)N1CCC[C@H]1C(=O)N[C@@H](CO)C(=O)N[C@@H](CO)C(=O)N[C@H](C(=O)N[C@@H](CC(N)=O)C(=O)N[C@H](C(=O)NCC(=O)N[C@@H](CO)C(=O)N[C@@H](CC(N)=O)C(=O)N[C@H](C(=O)N[C@@H](Cc1ccc(O)cc1)C(N)=O)[C@@H](C)O)C(C)C)[C@@H](C)O, also called compound 82) | 12.7
4 | K([AEEA-AEEA-γGlu-C20 diacid])CNTATCATQRLANFLRHSSPNFGAIPSSTNVGPNTY-NH2 (disulfide 2-7; N-terminus assumed; SMILES CC[C@H](C)[C@H](NC(=O)[C@H](C)NC(=O)CNC(=O)[C@H](Cc1ccccc1)NC(=O)[C@H](CC(N)=O)NC(=O)[C@@H]1CCCN1C(=O)[C@H](CO)NC(=O)[C@H](CO)NC(=O)[C@H](Cc1c[nH]cn1)NC(=O)[C@H](CCCNC(=N)N)NC(=O)[C@H](CC(C)C)NC(=O)[C@H](Cc1ccccc1)NC(=O)[C@H](CC(N)=O)NC(=O)[C@H](C)NC(=O)[C@H](CC(C)C)NC(=O)[C@H](CCCNC(=N)N)NC(=O)[C@H](CCC(N)=O)NC(=O)[C@@H](NC(=O)[C@H](C)NC(=O)[C@@H]1CSSC[C@H](NC(=O)[C@@H](N)CCCCNC(=O)COCCOCCNC(=O)COCCOCCNC(=O)CC[C@H](NC(=O)CCCCCCCCCCCCCCCCCCC(=O)O)C(=O)O)C(=O)N[C@@H](CC(N)=O)C(=O)N[C@@H]([C@@H](C)O)C(=O)N[C@@H](C)C(=O)N[C@@H]([C@@H](C)O)C(=O)N1)[C@@H](C)O)C(=O)N1CCC[C@H]1C(=O)N[C@@H](CO)C(=O)N[C@@H](CO)C(=O)N[C@H](C(=O)N[C@@H](CC(N)=O)C(=O)N[C@H](C(=O)NCC(=O)N1CCC[C@H]1C(=O)N[C@@H](CC(N)=O)C(=O)N[C@H](C(=O)N[C@@H](Cc1ccc(O)cc1)C(N)=O)[C@@H](C)O)C(C)C)[C@@H](C)O, also called compound 98) | 1.63
5 | K([AEEA-γGlu-C20 diacid])CNTATCATQRLARFLRHSSPNFGAIPSSTPVGSNTY-NH2 (disulfide 2-7; N-terminus assumed; SMILES CC[C@H](C)[C@H](NC(=O)[C@H](C)NC(=O)CNC(=O)[C@H](Cc1ccccc1)NC(=O)[C@H](CC(N)=O)NC(=O)[C@@H]1CCCN1C(=O)[C@H](CO)NC(=O)[C@H](CO)NC(=O)[C@H](Cc1c[nH]cn1)NC(=O)[C@H](CCCNC(=N)N)NC(=O)[C@H](CC(C)C)NC(=O)[C@H](Cc1ccccc1)NC(=O)[C@H](CCCNC(=N)N)NC(=O)[C@H](C)NC(=O)[C@H](CC(C)C)NC(=O)[C@H](CCCNC(=N)N)NC(=O)[C@H](CCC(N)=O)NC(=O)[C@@H](NC(=O)[C@H](C)NC(=O)[C@@H]1CSSC[C@H](NC(=O)[C@@H](N)CCCCNC(=O)COCCOCCNC(=O)CC[C@H](NC(=O)CCCCCCCCCCCCCCCCCCC(=O)O)C(=O)O)C(=O)N[C@@H](CC(N)=O)C(=O)N[C@@H]([C@@H](C)O)C(=O)N[C@@H](C)C(=O)N[C@@H]([C@@H](C)O)C(=O)N1)[C@@H](C)O)C(=O)N1CCC[C@H]1C(=O)N[C@@H](CO)C(=O)N[C@@H](CO)C(=O)N[C@H](C(=O)N1CCC[C@H]1C(=O)N[C@H](C(=O)NCC(=O)N[C@@H](CO)C(=O)N[C@@H](CC(N)=O)C(=O)N[C@H](C(=O)N[C@@H](Cc1ccc(O)cc1)C(N)=O)[C@@H](C)O)C(C)C)[C@@H](C)O, also called compound 64) | 22.9

Source: patent publication US20140087995A1 (published 2014)
